Source: the supplement of paper PMC9170038

System: MS2 coat protein
Assay: apparent KD of MS2 coat protein; designed switch direction (-1 OFF switch, 1 ON switch): 1; higher = weaker reporter binding
Method in brief: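 Designed RNA switches sharing common flanks were transcribed on Illumina chips by stalled E. coli RNA polymerase. They were titrated with SNAP-549-labelled MS2 coat protein, from 0.7 or 1.5 nM doubling to 3 µM, in Tris-HCl pH 7.5 buffer with KCl, MgCl2, BSA, DTT, tRNA and Tween-20. Titrations ran without input, with 200 uM small-molecule ligand, or with an oligonucleotide input. The apparent KD of each design is the median over its clusters, after curve-fitting of normalised cluster fluorescence.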

[1] = Eterna round: R95, input ligand: FMN 200 uM
[2] = Eterna round: R95, input ligand: microRNA oligo, concentration not stated
[3] = Eterna round: R95, input ligand: none
[4] = input ligand: microRNA oligo, concentration not stated

Sequence | apparent KD of MS2 coat protein [1] | apparent KD of MS2 coat protein [2] | apparent KD of MS2 coat protein [3] | apparent KD of MS2 coat protein (input ligand: FMN 200 uM) | apparent KD of MS2 coat protein [4] | apparent KD of MS2 coat protein (input ligand: none)
AUAAGUUUGAUGCUCGUCUCUUCGUACAGACAUGAGGAUCACCCAUGUAGUCGGGAAGUAGCCCGGCCAGUAUGACC [Usraisqu] (puzzle: Sensor for hsa-mir-208a) | 197 nM | 40.5 nM | 468 nM | – | – | –
AUAAAACAUGAGGAUCACCCAUGUCAACAAAGUUGAGGAUAUGGGCAAAUAAAAUAAGAACCAGAAGGCGAAUAAU [salish99_ss1_r3_033] (puzzle: Same State 1) | 429 nM | 193 nM | 546 nM | – | – | –
AAUUAAGAUCGAGGAUAUCACGUCGAAUAGACGUGAGAAGGCGAUCAUAACAUGAGGAUCACCCAUGUAUUACAUGAAUUAAUU [SSNG1/4-B1] (Eterna round: R96, puzzle: Same State NG 1) | – | – | – | 23.6 nM | 22.9 nM | 27 nM
AAGAAAUCCGCAGGAUAUCCUAAGCCGGACUUAGGAGAAGGGUGGCCACAUGAGGAUCACCCAUGUAAAAGCUGAAUCACAGCC [Vetianeste] (Eterna round: R96, puzzle: Same State NG 1) | – | – | – | 554 nM | 385 nM | 497 nM
GUAAUACAUGAGGAUCACCCAUGUCAAUGUAGUCGAGGAUAUGGGUAGCUAUGAGGCGUUCUAGAAGGCGACGAGC [Same State 1 - Mod of Vinnie Teenbexe v.3] (puzzle: Same State 1) | 273 nM | 151 nM | 52.2 nM | – | – | –
UGGCUCAGACGAGGAUAUAUGUCUCGAGCUUCGGCUCGAGACAUGAGGAUCACCCAUGUAAUAACAUAGAAGGUGUCUGAGCCA [SSNG2/1-C2] (Eterna round: R96, puzzle: Same State NG 2) | – | – | – | 50.6 nM | 240 nM | 263 nM
AAUAAACAUGAGGAUCACCCAUGUAAUAUAAAUGGAGGAUAUGCAAUUAUUAAUUAUUAAGUAGAAGGUCGAAUAA [Lollin - Epsilon 1] (puzzle: Same State 1) | 62.1 nM | 55.7 nM | 91.2 nM | – | – | –
CUCAAACAUGAGGAUCACCCAUGUGUUGUCAUGGGAGGAUAUCCCAGUUCGUUGUCGUCGGGAGAAGGCCUAUGUC [× ×•×ª×• ×ž×“×™× ×” × ×—×ª-14] (puzzle: Same State 1) | – | 55.9 nM | – | – | – | –
UUAUUAUAUAUAGGAUAUUGAUGUAAUUUAUUUCAAGAAGGAUAUACAUGAGGAUCACCCAUGUUGGAUAGGGUUAGUUUGUUU [JR_SSNG1_Sub079] (Eterna round: R96, puzzle: Same State NG 1) | – | – | – | – | 74 nM | –
ACAUGAGAUCGAGGAUAUUUUGUACCUACAUGUGACAUGAGGAUCACCCAUGUGGUAAGUAUGAGAAAGAAGGCGAAGAUAUGU [Equivalence 16 - Jieux - Same State NG 2] (Eterna round: R96, puzzle: Same State NG 2) | – | – | – | – | 29.3 nM | –
AUGCCAAAUCAAGGAUAUGGAUCCUUAUUGGAUCCAGAAGGUGGGACAUGAGGAUCACCCAUGUGGCAGUGGUCUAAUGACCAC [Fiskers NG1ss - 30] (Eterna round: R96, puzzle: Same State NG 1) | – | – | – | 61 nM | 185 nM | 281 nM
CUGAGCAAUCAAGGAUAUCACGUCGAAUAGACGUGAGAAGGUGAUCAUAACAUGAGGAUCACCCAUGUAUUACAUGAAGCUCAG [SSNG1/1-A1] (Eterna round: R96, puzzle: Same State NG 1) | – | – | – | 512 nM | 399 nM | 1280 nM
GCCAUCGAGUGAGGAUAUGGCACCGAAACGGUGCCAGAAGGCAUGUCAAAAGACAUGAGGAUCACCCAUGUAUUAUCGAUGGCA [Mat - Same State NG 1 - JL mod - D88] (Eterna round: R96, puzzle: Same State NG 1) | – | – | – | 28.5 nM | 208 nM | 237 nM
CGAUGUGAGUCAGGAUAUGGGUUAUCACUCCACAUGAGGAUCACCCAUGUAAAGAGGCCAAGGAGCCAGAAGGGACAUACAUCU [Zaorso] (Eterna round: R96, puzzle: Same State NG 2) | – | – | – | 1520 nM | 14.2 nM | 50.8 nM
AGCUAGUACCGAGGAUAUACAUACAUGAGGAUCACCCAUGUAUACAUGAAUUUAUGAGACUACAUGUAGAAGGCGGUACUAGCA [JL SSNG2 1.21] (Eterna round: R96, puzzle: Same State NG 2) | – | – | – | – | 40.1 nM | –
AUACAUGAGGAUCACCCAUGUAAUUAAUUAACUAGUAAGAUCUAGGAUAUCAGCUCGAAUAGAGCUGAGAAGGAGAUCACAUGU [SSNG3/21-A1] (Eterna round: R96, puzzle: Same State NG 3) | – | – | – | – | 31.2 nM | –

Sequence | apparent KD of MS2 coat protein [1] | apparent KD of MS2 coat protein [2] | apparent KD of MS2 coat protein [3] | apparent KD of MS2 coat protein (input ligand: FMN 200 uM) | apparent KD of MS2 coat protein [4] | apparent KD of MS2 coat protein (input ligand: none)
CCAUAGUACAAUUUAGAUCUACAUGAGGAUCACCCAUGUACUGAGGAUAUCAGCUCGAUUAGAGCUGAGAAGGCAGAAUUAAUU [SSNG3/5-A2] (Eterna round: R96, puzzle: Same State NG 3) | – | – | – | 58.4 nM | 96.8 nM | 122 nM
CAAGGACGGACACAGGAUAUCCUCACCUACACAUGAGGAUCACCCAUGUCAUAAAAGAUGGUGCAGGAGAAGGGUGCGGCGUCUA [Bibesoxe] (puzzle: Same State 2) | 10.7 nM | 9.62 nM | 9.99 nM | – | – | –
GGUCCAGCCUGAGCUGGACGAUAGUAUGUACAUGAGGAUCACCCAUGUCAUGUAUAAGUAUUUUGUUUGUCUUGAAA [Sensorship 3 - Jieux - Sensor for hsa-mir-208a] (puzzle: Sensor for hsa-mir-208a) | 22.1 nM | 14.7 nM | 19.3 nM | – | – | –
GGCUAUCGCGUACGAUAGCUGAAGCAUGUACAUGAGGAUCACCCAUGUCAUGUACAAGCUUUUUGCUCGUCUUAUUG [JL-shm-2.32 JL mod] (puzzle: Sensor for hsa-mir-208a) | 243 nM | 13.9 nM | 348 nM | – | – | –
UCUUGGUUUUUGCUCGUUUUUUGUGUUGAACAUGAGGAUCACCCAUGUAUUGUACGGUCCGGUUUAAUAAUGGUCCG [JMF 12] (puzzle: Sensor for hsa-mir-208a) | 25 nM | 14.7 nM | 26.3 nM | – | – | –
GCUACCAUUGAAGCCUACAUGAGGAUCACCCAUGUAUGUAGGCAGGAUAUCGAUUGCAAAGCGAUCGAGAAGGGCUUAGGUAGC [Mat - Same State NG 3 - JL Mod - D90] (Eterna round: R96, puzzle: Same State NG 3) | – | – | – | 30.8 nM | 52.2 nM | 79.1 nM
CAGCACUAUCGAGAGGAUAUGCGGUGAUGGACAUGAGGAUCACCCAUGUUAGCGAUAGCAUCACGGCAGAAGGCUCUGCUGCUGC [Soteed Omei mod 37] (puzzle: Same State 2) | 10.6 nM | 17.6 nM | 24.1 nM | – | – | –
AGGCUCAGACUAGGAUAUAUGCGAUCACAUGAGGAUCACCCAUGUCUCGAGCUUCGGCUCGAGGCAUAGAAGGAGUCUGAGCCA [SSNG2/4-D1] (Eterna round: R96, puzzle: Same State NG 2) | – | – | – | 17.1 nM | 30.8 nM | 57 nM
GCUAGAAUAAAAGCCAACAUGAGGAUCACCCAUGUAUGUUGGCAGGAUAUCGUUUGCAAAGCAAACGAGAAGGGCCAUACUAGC [Mat - Same State NG 3 - JL Mod - D23] (Eterna round: R96, puzzle: Same State NG 3) | – | – | – | 45.1 nM | 109 nM | 117 nM
AGUCCUGAAAAGAAAAUAAAGAGAGAUGUACAUGAGGAUCACCCAUGUCAUGUACAAGUUCUAUGCUCGUCAUAUAA [Sensorship 23 - Jieux - Sensor for hsa-mir-208a] (puzzle: Sensor for hsa-mir-208a) | 913 nM | 113 nM | 1430 nM | – | – | –
GGAGGACAUGAGGAUCACCCAUGUAGAUGGGCGCUAGGAUAUGCGAGAGGGUAGAGAGAAGCAGAAGGAGUGGAAA [JR_SS1_Sub040] (puzzle: Same State 1) | 149 nM | 197 nM | 382 nM | – | – | –
AGAAAGAAACAUGAGGAUCACCCAUGUACAAGCUUUUUGCUCGUCUUAUUACAUGGGUUCAUGGGUGAUCGGGAUGU [Tim MacKenzie] (puzzle: Sensor for hsa-mir-208a version 2) | 11.1 nM | 13.1 nM | 19.9 nM | – | – | –
GGAAUAUGAUGUUACAUGAGGAUCACCCAUGUAGUGAUAACUAAGGAUAUCUGUUAAGAUAAUUAAGAGAAGGUAGGAUCAUAA [AK SSNG3-V2-8.2] (Eterna round: R96, puzzle: Same State NG 3) | – | – | – | 34.7 nM | 37.5 nM | 42.4 nM
UGUCCAGCCUGUGCUGGUCUUUAGCAUGUACAUGAGGAUCACCCAUGUCGUGUACAUGCUUUUUGCUCGUCUUUAAA [Photon Torp-05] (puzzle: Sensor for hsa-mir-208a) | 68.9 nM | 25.9 nM | 92.2 nM | – | – | –
AUUAAACAUGAGGAUCACCCAUGUCAACAAAGUCGAGGAUAUGGGCAAAUAAAAUAAGAACCAGAAGGCGAAUAAU [salish99_ss1_r3_048] (puzzle: Same State 1) | 31.6 nM | 357 nM | 555 nM | – | – | –
AUUAUUUAUGCAGGAUAUGAUUAACAUGAGGAUCACCCAUGUGGUGUUGUGAGUAAGGAGAGUGAUCAGAAGGGCAUCUUUUUU [JMF's solution 44] (Eterna round: R96, puzzle: Same State NG 2) | – | – | – | 610 nM | 227 nM | 414 nM
